Experiments:
Conditions in all cases: tags: Chemicon (Temecula, CA)
Tenascin-C [1] = target: T1, Tenascin-C (Homo sapiens, UniProt P24821 P24821:23-2201); test: filter; Family I
Protocol: (§1) which contains the T7 polymerase promoter (underlined). RNA was prepared with T7 RNA polymerase as described previously in Fitzwater, T., and Polisky, B. 1996. A SELEX primer. Methods Enzymol. 267, 275-301, incorporated herein by reference in its entirety. All transcription reactions were performed in the presence of pyrimidine nucleotides that were 2′-fluoro (2′-F) modified on the sugar moiety. This substitution confers enhanced resistance to ribonucleases that utilize the 2′-hydroxyl moiety for cleavage of the phosphodiester bond. Specifically, each transcription mixture contained 3.3 mM 2′-F UTP and 3.3 mM 2′-F CTP along with 1 mM GTP and ATP. The initial randomized RNA library thus produced comprised 3×10¹⁴ molecules. The affinities of individual ligands for tenascin-C were determined by standard methods using nitrocellulose filter partitioning (Tuerk C, Gold L. Science Aug. 3, 1990 3;249(4968):505-10).

Tenascin-C [2] = target: T1, Tenascin-C; test: filter; Family II
Tenascin-C [3] = target: T1, Tenascin-C; test: filter; Family I; printed as 7N22
Tenascin-C [4] = target: T1, Tenascin-C; test: filter; orphan
Protocol: as §1

Tenascin-C [5] = target: T1, Tenascin-C; test: filter; unit printed as nN
Source text: (§2) Oligonucleotide synthesis procedures were standard for those skilled in the art (Green L S, Jellinek D, Bell C, Beebe L A, Feistner B D, Gill S C, Jucker F M, Janjic N. Chem Biol 1995 Oct.;2(10):683-95). 2′-fluoro pyrimidine phosphoramidite monomers were obtained from JBL Scientific (San Luis Obispo, Calif.); 2′-OMe purine, 2′-OH purine, hexyl amine, and (CH₂CH₂O)₆ monomers, along with the dT polystyrene solid support, were obtained from Glen Research (Sterling, Va.). Aptamer affinities were determined using nitrocellulose filter partitioning (Green et al., supra).

Tenascin-C [6] = target: T1, Tenascin-C; test: filter
Source text: as §2

Tenascin-C [7] = target: T1, Tenascin-C; test: filter; remark: listed apart in the source

T1 sequence (P24821 23-2201, one chain of several): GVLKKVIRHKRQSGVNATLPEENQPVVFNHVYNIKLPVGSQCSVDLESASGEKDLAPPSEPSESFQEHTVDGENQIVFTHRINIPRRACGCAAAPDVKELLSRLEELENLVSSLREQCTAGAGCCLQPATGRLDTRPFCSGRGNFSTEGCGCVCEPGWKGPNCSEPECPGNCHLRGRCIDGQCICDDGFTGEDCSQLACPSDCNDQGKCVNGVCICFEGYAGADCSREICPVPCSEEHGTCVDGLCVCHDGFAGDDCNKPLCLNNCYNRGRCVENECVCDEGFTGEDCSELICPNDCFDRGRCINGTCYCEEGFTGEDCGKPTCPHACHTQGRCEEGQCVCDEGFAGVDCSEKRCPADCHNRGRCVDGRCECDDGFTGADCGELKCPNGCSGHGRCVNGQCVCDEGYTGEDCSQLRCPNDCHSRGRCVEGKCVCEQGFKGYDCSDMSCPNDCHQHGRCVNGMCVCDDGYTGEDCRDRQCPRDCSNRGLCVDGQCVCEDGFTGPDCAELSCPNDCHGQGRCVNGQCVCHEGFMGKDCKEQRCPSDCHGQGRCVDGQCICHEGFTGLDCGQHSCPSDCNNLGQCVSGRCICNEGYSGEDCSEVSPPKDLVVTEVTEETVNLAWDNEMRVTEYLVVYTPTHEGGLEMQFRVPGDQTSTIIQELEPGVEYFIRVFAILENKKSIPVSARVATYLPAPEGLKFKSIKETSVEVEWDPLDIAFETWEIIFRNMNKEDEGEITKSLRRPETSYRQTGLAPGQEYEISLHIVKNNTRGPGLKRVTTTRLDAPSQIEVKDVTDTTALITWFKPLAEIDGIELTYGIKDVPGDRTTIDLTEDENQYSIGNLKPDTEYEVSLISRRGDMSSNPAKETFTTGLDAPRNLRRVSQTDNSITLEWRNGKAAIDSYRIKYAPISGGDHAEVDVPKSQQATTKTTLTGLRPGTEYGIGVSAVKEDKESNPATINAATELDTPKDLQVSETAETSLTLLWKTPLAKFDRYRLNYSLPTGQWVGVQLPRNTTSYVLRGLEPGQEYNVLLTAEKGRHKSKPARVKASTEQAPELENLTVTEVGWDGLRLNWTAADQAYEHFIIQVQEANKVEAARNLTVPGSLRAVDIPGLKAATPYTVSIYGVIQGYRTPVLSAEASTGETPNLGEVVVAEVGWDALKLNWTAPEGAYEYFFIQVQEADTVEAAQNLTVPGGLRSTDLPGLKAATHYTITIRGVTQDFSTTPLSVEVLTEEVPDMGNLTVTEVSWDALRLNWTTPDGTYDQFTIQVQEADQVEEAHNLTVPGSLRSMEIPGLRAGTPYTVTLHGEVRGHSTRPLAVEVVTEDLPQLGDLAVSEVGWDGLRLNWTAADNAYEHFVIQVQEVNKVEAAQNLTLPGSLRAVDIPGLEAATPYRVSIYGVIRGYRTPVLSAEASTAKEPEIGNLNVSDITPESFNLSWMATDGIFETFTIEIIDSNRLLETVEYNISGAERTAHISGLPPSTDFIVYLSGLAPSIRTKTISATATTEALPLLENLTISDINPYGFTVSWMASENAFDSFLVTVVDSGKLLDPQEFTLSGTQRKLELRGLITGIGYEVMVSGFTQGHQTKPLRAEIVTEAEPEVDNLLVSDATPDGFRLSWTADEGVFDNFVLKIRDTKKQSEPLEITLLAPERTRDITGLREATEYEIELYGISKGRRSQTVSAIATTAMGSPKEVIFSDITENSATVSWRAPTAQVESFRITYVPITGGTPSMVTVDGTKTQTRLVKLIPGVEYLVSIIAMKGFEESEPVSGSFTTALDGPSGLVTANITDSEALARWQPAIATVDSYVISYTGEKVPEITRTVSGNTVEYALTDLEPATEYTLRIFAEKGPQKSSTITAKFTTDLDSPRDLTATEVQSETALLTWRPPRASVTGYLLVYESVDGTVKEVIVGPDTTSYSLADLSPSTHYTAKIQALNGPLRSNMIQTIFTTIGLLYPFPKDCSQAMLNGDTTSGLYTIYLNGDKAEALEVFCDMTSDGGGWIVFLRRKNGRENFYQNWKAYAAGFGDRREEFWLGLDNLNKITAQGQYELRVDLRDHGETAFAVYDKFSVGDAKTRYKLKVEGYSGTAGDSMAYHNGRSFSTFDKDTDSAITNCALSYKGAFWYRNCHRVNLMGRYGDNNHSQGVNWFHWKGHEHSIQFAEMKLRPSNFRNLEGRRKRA

B1: TN29 (ssRNA)
RNA: GGGAGGACGAUGCGGCCAACCUCAUUUUGACACUUCGCCGCACCUAAUUGCCCCCAGACGACUCGCCCGA
modifications: 2'-F C and U
Work on B1 yielded a Kd (Tenascin-C [1]) of 25 nM.

B2: TN41 (ssRNA)
RNA: GGGAGGACGAUGCGGUUAAGUCUCGGUUGAAUGCCCAUCCCAGAUCCCCCUGACCCAGACGACUCGCCCGA
modifications: 2'-F C and U
B2 gave a Kd (Tenascin-C [2]) of 20 nM.

B3: TN4 (ssRNA)
RNA: GGGAGGACGAUGCGGCAACCUCGAAAGACUUUUCCCGCAUCACUGUGUACUCCCCCAGACGACUCGCCCGA
modifications: 2'-F C and U
B3 gave a Kd (Tenascin-C [1]) of 40 nM.

B4: TN22 (ssRNA)
RNA: GGGAGGACGAUGCGGCAACCUCGAUAGACUUUUCCCGCAUCACUGUGUACUCCCCCAGACGACUCGCCCGA
modifications: 2'-F C and U
Work on B4 yielded a Kd (Tenascin-C [3]) of 40 nM.

B5: TN27 (ssRNA)
RNA: GGGAGGACGAUGCGGAAACCAACCGUUGACCACCUUUUCGUUUCCGGAAAGUCCCCAGACGACUCGCCCGA
modifications: 2'-F C and U
For B5, the Kd (Tenascin-C [4]) was 110 nM.

B6: TN45 (ssRNA)
RNA: GGGAGGACGAUGCGGCAAUCUCCGAAAAAGACUCUUCCUGCAUCCUCUCACCCCCCAGACGACUCGCCCGA
modifications: 2'-F C and U
B6 was tested, and the Kd (Tenascin-C [1]) was 30 nM.

B7: TN9 (ssRNA)
RNA: GGGAGGACGAUGCGGAACAAUGCACUCGUCGCCGUAAUGGAUGUUUUGCUCCCUGCAGACGACUCGCCCGA
modifications: 2'-F C and U
In the case of B7, the Kd (Tenascin-C [2]) is reported as 5 nM.

B8: TN21 (ssRNA)
RNA: GGGAGGACGAUGCGGACUGGACCAAACCGUCGCCGAUACCCGGAUACUUUGCUCCCAGACGACUCGCCCGA
modifications: 2'-F C and U
In the case of B8, the Kd (Tenascin-C [2]) is reported as 10 nM.

B9: TN24 (ssRNA)
RNA: GGGAGGACGAUGCGGGACCAACUAAACUGUUCGAAAGCUGGAACAUGUCCUGACGCCAGACGACUCGCCCGA
modifications: 2'-F C and U
B9 was tested, and the Kd (Tenascin-C [4]) was 10 nM.

B10: TN14 (ssRNA)
RNA: GGGAGGACGAUGCGGCAAACGAUCACUUACCUUUCCUGCAUCUGCUAGCCUCCCCCAGACGACUCGCCCGA
modifications: 2'-F C and U
For B10, the Kd (Tenascin-C [1]) was 20 nM.

B11: TN9.4 (ssRNA)
RNA: GGGAGGACGAUGCGGAACAAUGCACUCGUCGCCGUAAUGGAUGUUUUGCUCCCUG
modifications: 2'-F C and U; 3'-3' cap
For B11, the Kd (Tenascin-C [5]) was 2 nM.

B12: TN9.4M135G6 (ssRNA)
RNA: GGGAGGACGAUGCGGAACAAUGCACUCGUCGCCGUAAUGGAUGUUUUGCUCCCUG
modifications: 2'-F C and U; 2'-OMe purines of sectors 1,3,5 plus G6; 5' hexyl amine; 3'-3' cap
B12 showed a Kd (Tenascin-C [6]) of 2.2 nM.

B13: TN9.4M135A10 (ssRNA)
RNA: GGGAGGACGAUGCGGAACAAUGCACUCGUCGCCGUAAUGGAUGUUUUGCUCCCUG
modifications: 2'-F C and U; 2'-OMe purines of sectors 1,3,5 plus A10; 5' hexyl amine; 3'-3' cap
Work on B13 yielded a Kd (Tenascin-C [6]) of 1.3 nM.

B14: TN9.4M1 (ssRNA)
RNA: GGGAGGACGAUGCGGAACAAUGCACUCGUCGCCGUAAUGGAUGUUUUGCUCCCUG
modifications: 2'-F C and U; 2'-OMe G1,G2,G3,A4,G5,G55; 3'-3' cap
With B14 the Kd (Tenascin-C [6]) was 6 nM.

B15: TN9.4M135G28 (ssRNA)
RNA: GGGAGGACGAUGCGGAACAAUGCACUCGUCGCCGUAAUGGAUGUUUUGCUCCCUG
modifications: 2'-F C and U; 2'-OMe purines of sectors 1,3,5 plus G28; 5' hexyl amine; 3'-3' cap
Binder B15 has a Kd (Tenascin-C [6]) of 37 nM.

B16: TN9.4M135G12G14 (ssRNA)
RNA: GGGAGGACGAUGCGGAACAAUGCACUCGUCGCCGUAAUGGAUGUUUUGCUCCCUG
modifications: 2'-F C and U; 2'-OMe purines of sectors 1,3,5 plus G12,G14; 5' hexyl amine; 3'-3' cap
B16 was tested, and the Kd (Tenascin-C [6]) was 2.5 nM.

B17: TN9.4M2 (ssRNA)
RNA: GGGAGGACGAUGCGGAACAAUGCACUCGUCGCCGUAAUGGAUGUUUUGCUCCCUG
modifications: 2'-F C and U; 2'-OMe G6,A7,G9,A10,G12,G14; 3'-3' cap
With B17 the Kd (Tenascin-C [6]) was 20 nM.

B18: TN9.4M135A7 (ssRNA)
RNA: GGGAGGACGAUGCGGAACAAUGCACUCGUCGCCGUAAUGGAUGUUUUGCUCCCUG
modifications: 2'-F C and U; 2'-OMe purines of sectors 1,3,5 plus A7; 5' hexyl amine; 3'-3' cap
B18 gave a Kd (Tenascin-C [6]) of 1.7 nM.

B19: TN9.4M3 (ssRNA)
RNA: GGGAGGACGAUGCGGAACAAUGCACUCGUCGCCGUAAUGGAUGUUUUGCUCCCUG
modifications: 2'-F C and U; 2'-OMe G15,A16,A17,A19,A20,G22,A24; 3'-3' cap
Binder B19 has a Kd (Tenascin-C [6]) of 7 nM.

B20: TN9.4M1235 (ssRNA)
RNA: GGGAGGACGAUGCGGAACAAUGCACUCGUCGCCGUAAUGGAUGUUUUGCUCCCUG
modifications: 2'-F C and U; 2'-OMe purines of sectors 1,2,3,5 (G28,G31,G34 2'-OH); 5' hexyl amine; 3'-3' cap
B20 gave a Kd (Tenascin-C [6]) of 16.5 nM.

B21: TN9.4M5 (ssRNA)
RNA: GGGAGGACGAUGCGGAACAAUGCACUCGUCGCCGUAAUGGAUGUUUUGCUCCCUG
modifications: 2'-F C and U; 2'-OMe A36,A37,G39,G40,A41,G43,G48; 3'-3' cap
Binder B21 has a Kd (Tenascin-C [6]) of 4 nM.

B22: TN9.4Me (ssRNA)
RNA: GGGAGGACGAUGCGGAACAAUGCACUCGUCGCCGUAAUGGAUGUUUUGCUCCCUG
modifications: 2'-F C and U; 2'-OMe all purines; 3'-3' cap
B22 was tested, and the Kd (Tenascin-C [6]) was 10 nM.

B23: TN9.4M135G34 (ssRNA)
RNA: GGGAGGACGAUGCGGAACAAUGCACUCGUCGCCGUAAUGGAUGUUUUGCUCCCUG
modifications: 2'-F C and U; 2'-OMe purines of sectors 1,3,5 plus G34; 5' hexyl amine; 3'-3' cap
Work on B23 yielded a Kd (Tenascin-C [6]) of 7 nM.

B24: TN9.4M135G31 (ssRNA)
RNA: GGGAGGACGAUGCGGAACAAUGCACUCGUCGCCGUAAUGGAUGUUUUGCUCCCUG
modifications: 2'-F C and U; 2'-OMe purines of sectors 1,3,5 plus G31; 5' hexyl amine; 3'-3' cap
Work on B24 yielded a Kd (Tenascin-C [6]) of 55 nM.

B25: TN9.4M135G9 (ssRNA)
RNA: GGGAGGACGAUGCGGAACAAUGCACUCGUCGCCGUAAUGGAUGUUUUGCUCCCUG
modifications: 2'-F C and U; 2'-OMe purines of sectors 1,3,5 plus G9; 5' hexyl amine; 3'-3' cap
B25 showed a Kd (Tenascin-C [6]) of 7.7 nM.

B26: TN9 with CACU loop (ssRNA)
RNA: GGGAGGACGCACUCGUCGCCGUAAUGGAUGUUUUGCUCCCUG
modifications: 2'-F C and U [2'-F: 8,10,12-14,16,17,19,20,22,25,29,31-34,36-41]
B26: binds (Tenascin-C [7]).

B27: TN9 with GAGA loop (ssRNA)
RNA: GGGAGGACGGAGACGUCGCCGUAAUGGAUGUUUUGCUCCCUG
modifications: 2'-F C and U [2'-F: 8,14,16,17,19,20,22,25,29,31-34,36-41]
B27: binds (Tenascin-C [7]).

B28: TN7 (ssRNA)
RNA: GGGAGGACGAUGCGGAACACUUUCCCAUGCGUCGCCAUACCGGAUAUAUUGCUCCCAGACGACUCGCCCGA
modifications: 2'-F C and U
B28 showed a Kd (Tenascin-C [2]) of 20 nM.

B29: TN44 (ssRNA)
RNA: GGGAGGACGAUGCGGACGCCAGCCAUUGACCCUCGCUUCCACUAUUCCAUCCCCCCAGACGACUCGCCCGA
modifications: 2'-F C and U
For B29, the Kd (Tenascin-C [1]) was 10 nM.

B30: E9P2-1 (ssRNA)
RNA: GGGAGGACGAUGCGGUGCCCAUAGAAGCGUGCCGCUAAUGCUAACGCCCUCCCCCAGACGACUCGCCCGA
modifications: 2'-F C and U
For B30, the Kd (Tenascin-C [2]) was 2 nM.

B31: TN18 (ssRNA)
RNA: GGGAGGACGAUGCGGUCGACCUCGAAUGACUCUCCACCUAUCUAACAUCCCCCCCCAGACGACUCGCCCGA
modifications: 2'-F C and U
In the case of B31, the Kd (Tenascin-C [4]) is reported as 145 nM.

B32: E9P2-2 (ssRNA)
RNA: GGGAGGACGAUGCGGUGCCCACUAUGCGUGCCGAAAAACAUUUCCCCCUCUACCCCAGACGACUCGCCCGA
modifications: 2'-F C and U
B32 showed a Kd (Tenascin-C [2]) of 8 nM.

B33: TN11 (ssRNA)
RNA: GGGAGGACGAUGCGGCAAUCAAAACUCACGUUAUUCCCUCAUCUAUUAGCUUCCCCAGACGACUCGCCCGA
modifications: 2'-F C and U
For B33, the Kd (Tenascin-C [1]) was 10 nM.

B34: TN32 (ssRNA)
RNA: GGGAGGACGAUGCGGCAACCUCAAUCUUGACAUUUCCCGCACCUAAAUUUGCCCCCAGACGACUCGCCCGA
modifications: 2'-F C and U
For B34, the Kd (Tenascin-C [1]) was 15 nM.

From patent publication US20030104377, “Tenascin-C nucleic acid ligands” (Gilead Sciences, Inc., published 2003)
